US20250334585A1

Target: immobilized gingipain (GP protein) of the anti-gingipain ELISA of Example 18
Test: ELISA on immobilized gingipain

B1: KB001 (antibody, V domains shown)
VH: EVQLKQSGPGLVAPSQSLSITCTVSGFSLSIYSVHWVRQPPGKGLEWLGMIWGGGSSDYNSALKSRLSISKDNSKSQVFLKMNSLQTDDTAMYYCARNGNFYAMDYWGQGTSVTVSS
VL: QIVLTQSPAIMSASLGERVTMTCTASSSVSSSFLHWYQQKPGSSPQLWIYSTSNLASGVPARFSGSGSGTSYSLTISSMEAEDAATYYCHQYHHSPYIYTFGGGTKLEIKR
- detectable level of concentration: 3 ng/mL
